The record followed here is PMC11024467, “A novel dual mechanism-of-action bispecific PD-1-IL-2v armed by a “βγ-only” interleukin-2 variant” (Frontiers in Immunology, 2024).

The target of experiment [1] is T1, IL-2Rβγ complex (UniProt P14784 27-551; P31785 23-369). As to the kind of experiment: cell-based or functional assay.
Experiment [2] addresses T1, IL-2Rβγ complex. As to the kind of experiment: SPR; Biacore, IL-2 receptor proteins immobilised on a CM5 chip; wild-type IL-2 or variant 012 flowed over at stepwise concentrations for 120 s, then blank solution; 1:1 binding fit (steady state affinity for 001 on IL-2Rα). Conditions: both partners purified. In general terms: In SPR one partner is held on a chip, and binding of the other changes the refractive index at the surface.

Another experiment addresses IL-2Rαβγ complex (UniProt P01589 22-272; P14784 27-551; P31785 23-369). The description is as above. The conditions noted are these: both partners purified.

T1 sequence (P14784 27-551, chain 1 of 2): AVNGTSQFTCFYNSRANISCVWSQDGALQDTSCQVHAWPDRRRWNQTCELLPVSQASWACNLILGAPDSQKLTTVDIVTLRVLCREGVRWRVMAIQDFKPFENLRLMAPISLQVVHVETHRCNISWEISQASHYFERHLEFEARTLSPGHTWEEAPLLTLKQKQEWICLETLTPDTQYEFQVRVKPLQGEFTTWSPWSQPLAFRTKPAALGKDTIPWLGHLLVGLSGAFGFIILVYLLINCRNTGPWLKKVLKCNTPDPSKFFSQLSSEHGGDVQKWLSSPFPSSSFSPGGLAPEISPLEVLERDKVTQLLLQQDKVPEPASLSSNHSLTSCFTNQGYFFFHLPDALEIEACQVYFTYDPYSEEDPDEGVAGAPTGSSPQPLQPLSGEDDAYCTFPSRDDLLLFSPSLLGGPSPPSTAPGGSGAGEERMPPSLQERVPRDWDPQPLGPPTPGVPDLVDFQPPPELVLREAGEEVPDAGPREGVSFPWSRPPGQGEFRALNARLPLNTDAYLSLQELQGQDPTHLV
T1 sequence (P31785 23-369, chain 2 of 2): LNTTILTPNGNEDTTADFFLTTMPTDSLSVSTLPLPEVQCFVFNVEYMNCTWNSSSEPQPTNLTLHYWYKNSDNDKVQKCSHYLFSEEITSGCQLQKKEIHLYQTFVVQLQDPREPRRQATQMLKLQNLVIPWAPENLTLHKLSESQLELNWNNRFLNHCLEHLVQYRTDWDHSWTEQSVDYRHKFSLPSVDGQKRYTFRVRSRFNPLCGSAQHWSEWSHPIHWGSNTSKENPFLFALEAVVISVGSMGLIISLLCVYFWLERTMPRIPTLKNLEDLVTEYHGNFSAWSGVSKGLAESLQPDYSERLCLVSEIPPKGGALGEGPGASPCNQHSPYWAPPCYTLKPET
IL-2Rαβγ complex, sequence (P01589 22-272, chain 1 of 3): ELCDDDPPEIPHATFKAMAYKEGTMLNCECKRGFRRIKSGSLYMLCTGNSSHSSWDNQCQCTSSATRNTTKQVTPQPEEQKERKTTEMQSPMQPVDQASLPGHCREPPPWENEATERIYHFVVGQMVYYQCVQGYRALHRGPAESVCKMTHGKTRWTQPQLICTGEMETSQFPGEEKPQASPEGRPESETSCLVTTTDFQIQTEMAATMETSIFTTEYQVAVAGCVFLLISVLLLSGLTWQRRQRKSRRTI
IL-2Rαβγ complex, sequence (P14784 27-551, chain 2 of 3): as the sequence (P14784 27-551, chain 1 of 2) above
IL-2Rαβγ complex, sequence (P31785 23-369, chain 3 of 3): as the sequence (P31785 23-369, chain 2 of 2) above

B1: IL-2 variant 012 (ligand)
chain: PTSSSTKKTQLQLEHLLLDLQMILNGINNYKNPLRPRDLISNINVIVLELKGSETTELKHLQSLEEELKDLEEVLNLAQSKNFHTIVEFLNRWITFSQSIISTLT
notes: also called βγ-only IL-2v
One may read the Kd as the free concentration of one partner at which half of the binding sites on the other are occupied at equilibrium, for simple one-to-one binding. For orientation: koff means the rate constant with which the complex falls apart. With B1, in the experiment with IL-2Rβγ complex [1], the “EC50 of STAT5 activation (pSTAT5) in CD8 T cells of human PBMC (Table S4)” value is 18.6 nM and the “EC50 of STAT5 activation (pSTAT5) in NK cells of human PBMC (Table S4)” value came out at 5.11 nM. Further, in the experiment with IL-2Rβγ complex [2], binding was put at a Kd of 0.467 nM and the koff was 0.00106 s⁻¹. In the experiment with IL-2Rαβγ complex, this molecule returned an equilibrium dissociation constant (Kd) of 0.575 nM and a koff of 0.000732 s⁻¹.
